In patent US20160222130A1 (Astellas, published 2016):

Columns and labels:
Human Tie2 (1-452)g3-Fc [1] = biological target: T1, Human Tie2 (1-452)g3-Fc (human, UniProt Q02763 23-452); experiment: ELISA; Tie2-Fc coated at 1 ug/mL, chemiluminescence
T1 construct: range 1-452
Protocol: (§1) The next day, the immobilized solution was removed, and the plate was washed with a TBS-T solution, and incubated for 60 minutes by the addition of 50 μL of a Blocker™ Casein in TBS (Thermo Fisher Scientific Inc., 37532) to perform blocking. The resultant was washed with a TBS-T solution, and TIE-1-Igγ1-LALA, diluted with 0.05% Tween 20 (Nacalai Tesque Inc., 28353-85)—containing Blocker™ Casein in TBS from 0.03 ng/mL to 100 ng/mL through eight steps, was added thereto in the amount of 20 μL per well. The resultant was incubated at room temperature for 90 minutes and then washed with a TBS-T solution three times, and 20 μL of a biotin-labeled anti-human kappa light chain antibody, which had been diluted to 0.1 μg/mL with 0.05% Tween 20-containing Blocker™ Casein in TBS, was added thereto. The resultant was incubated at room temperature for 60 minutes and then washed with a TBS-T solution three times, and 20 μL of alkaline phosphatase-labeled streptavidin, which had been diluted to 0.1 μg/mL with 0.05% Tween 20-containing Blocker™ Casein in TBS, was added thereto. The resultant was incubated at room temperature for 60 minutes and then washed with a TBS-T solution three times, and 50 μL of Chemiluminescent Ultra Sensitive AP Microwell and/or Membrane Substrate (450 nm), which had been 5-fold diluted with 1 mM MgCl₂-containing 20 mM TBS (pH 9.8) as a substrate, was added thereto. The resultant was incubated at room temperature under light-shielding for 40 minutes, and then luminescent intensity thereof was measured with an EnVision™ multi-label counter. The EC₅₀ value of TIE-1-Igγ1-LALA with respect to the human Tie2 (1-452)-Fc chimeric protein and 23 mutant proteins thereof were calculated. The relative value of luminescent intensity of 100 ng/mL TIE-1-Igγ1-LALA as maximum concentration point with respect to human Tie2 (1-452)-Fc chimeric protein and 23 mutant proteins thereof when the convergence value of the sigmoid curve of TIE-1-Igγ1-LALA binding to the human Tie2 (1-452)-Fc chimeric protein which was taken as 100% was calculated (Table 8 and Table 9). Further, the EC₅₀ value and the convergence value were calculated by Sigmoid-Emax model non-linear regression analysis.

Human Tie2 (1-452)r7-Fc [2] = biological target: T2, Human Tie2 (1-452)r7-Fc (human, UniProt Q02763 23-452); experiment: as above
T2 construct: range 1-452
Protocol: as §1

Human Tie2 (1-452)m1-Fc = biological target: T3, Human Tie2 (1-452)m1-Fc (human, UniProt Q02763 23-452); experiment: ELISA; Tie2-Fc coated at 1 ug/mL; signal at 100 ng/mL antibody vs convergence value on the parent
T3 construct: range 1-452
Protocol: as §1

Human Tie2 (1-452)g4-Fc = biological target: T4, Human Tie2 (1-452)g4-Fc (human, UniProt Q02763 23-452); experiment: as above
T4 construct: range 1-452
Protocol: as §1

Human Tie2 (1-452)y1-Fc = biological target: T5, Human Tie2 (1-452)y1-Fc (human, UniProt Q02763 23-452); experiment: as above
T5 construct: range 1-452
Protocol: as §1

Human Tie2 (1-452)r3-Fc = biological target: T6, Human Tie2 (1-452)r3-Fc (human, UniProt Q02763 23-452); experiment: as above
T6 construct: range 1-452
Protocol: as §1

Human Tie2 (1-452)g2-Fc = biological target: T7, Human Tie2 (1-452)g2-Fc (human, UniProt Q02763 23-452); experiment: as above
T7 construct: range 1-452
Protocol: as §1

Human Tie2 (1-452)g6-Fc = biological target: T8, Human Tie2 (1-452)g6-Fc (human, UniProt Q02763 23-452); experiment: as above
T8 construct: range 1-452
Protocol: as §1

Human Tie2 (1-452)m3-Fc = biological target: T9, Human Tie2 (1-452)m3-Fc (human, UniProt Q02763 23-452); experiment: as above
T9 construct: range 1-452
Protocol: as §1

Human Tie2 (1-452)r6-Fc = biological target: T10, Human Tie2 (1-452)r6-Fc (human, UniProt Q02763 23-452); experiment: as above
T10 construct: range 1-452
Protocol: as §1

Human Tie2 (1-452)g3-Fc [3] = biological target: T1, Human Tie2 (1-452)g3-Fc; experiment: as above
Protocol: as §1

Human Tie2 (1-452)r4-Fc = biological target: T11, Human Tie2 (1-452)r4-Fc (human, UniProt Q02763 23-452); experiment: as above
T11 construct: range 1-452
Protocol: as §1

Human Tie2 (1-452)c1-Fc = biological target: T12, Human Tie2 (1-452)c1-Fc (human, UniProt Q02763 23-452); experiment: as above
T12 construct: range 1-452
Protocol: as §1

Human Tie2 (1-452)g1-Fc = biological target: T13, Human Tie2 (1-452)g1-Fc (human, UniProt Q02763 23-452); experiment: as above
T13 construct: range 1-452
Protocol: as §1

Human Tie2 (1-452)r2-Fc = biological target: T14, Human Tie2 (1-452)r2-Fc (human, UniProt Q02763 23-452); experiment: as above
T14 construct: range 1-452
Protocol: as §1

Human Tie2 (1-452)r7-Fc [4] = biological target: T2, Human Tie2 (1-452)r7-Fc; experiment: as above
Protocol: as §1

Human Tie2 (1-452)r5-Fc = biological target: T15, Human Tie2 (1-452)r5-Fc (human, UniProt Q02763 23-452); experiment: as above
T15 construct: range 1-452
Protocol: as §1

T1 sequence (Q02763 other isoform, or with tags, fused parts or gaps limits assumed, form in doubt): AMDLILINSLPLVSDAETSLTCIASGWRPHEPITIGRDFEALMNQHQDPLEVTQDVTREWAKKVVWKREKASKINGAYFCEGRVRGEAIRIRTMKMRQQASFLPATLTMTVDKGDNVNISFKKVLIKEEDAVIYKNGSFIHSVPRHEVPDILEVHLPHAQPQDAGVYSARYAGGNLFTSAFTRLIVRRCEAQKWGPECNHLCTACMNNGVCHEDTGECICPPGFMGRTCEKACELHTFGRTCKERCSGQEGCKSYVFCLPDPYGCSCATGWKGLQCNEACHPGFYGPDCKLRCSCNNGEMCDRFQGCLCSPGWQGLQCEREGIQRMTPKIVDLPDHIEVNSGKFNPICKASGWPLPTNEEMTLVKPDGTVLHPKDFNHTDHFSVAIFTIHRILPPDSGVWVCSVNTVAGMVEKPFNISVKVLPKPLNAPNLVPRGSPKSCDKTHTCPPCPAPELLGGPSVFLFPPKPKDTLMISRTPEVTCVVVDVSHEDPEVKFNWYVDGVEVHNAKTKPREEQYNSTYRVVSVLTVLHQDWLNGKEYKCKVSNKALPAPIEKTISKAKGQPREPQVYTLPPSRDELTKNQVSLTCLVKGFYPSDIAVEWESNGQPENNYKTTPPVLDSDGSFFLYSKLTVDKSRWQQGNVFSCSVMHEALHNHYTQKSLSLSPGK
T2 sequence (Q02763 other isoform, or with tags, fused parts or gaps limits assumed, form in doubt): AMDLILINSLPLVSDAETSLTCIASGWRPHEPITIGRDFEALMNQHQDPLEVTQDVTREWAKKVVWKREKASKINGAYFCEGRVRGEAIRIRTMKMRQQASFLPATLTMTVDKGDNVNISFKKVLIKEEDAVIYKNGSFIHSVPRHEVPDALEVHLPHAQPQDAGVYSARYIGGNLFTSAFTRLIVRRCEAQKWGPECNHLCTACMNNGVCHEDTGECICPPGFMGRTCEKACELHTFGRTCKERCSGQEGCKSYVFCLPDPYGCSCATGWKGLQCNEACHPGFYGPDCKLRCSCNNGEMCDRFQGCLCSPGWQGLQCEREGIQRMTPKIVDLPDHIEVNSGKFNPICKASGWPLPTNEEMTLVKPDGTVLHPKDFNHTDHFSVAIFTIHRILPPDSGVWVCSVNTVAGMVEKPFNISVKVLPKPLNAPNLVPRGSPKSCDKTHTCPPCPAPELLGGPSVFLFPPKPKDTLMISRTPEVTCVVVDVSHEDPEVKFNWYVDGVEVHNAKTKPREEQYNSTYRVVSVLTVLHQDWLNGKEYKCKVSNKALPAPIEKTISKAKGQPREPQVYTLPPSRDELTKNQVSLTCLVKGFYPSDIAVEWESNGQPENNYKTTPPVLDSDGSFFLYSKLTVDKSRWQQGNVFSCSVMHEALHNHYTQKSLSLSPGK
T13 sequence (Q02763 other isoform, or with tags, fused parts or gaps limits assumed, form in doubt): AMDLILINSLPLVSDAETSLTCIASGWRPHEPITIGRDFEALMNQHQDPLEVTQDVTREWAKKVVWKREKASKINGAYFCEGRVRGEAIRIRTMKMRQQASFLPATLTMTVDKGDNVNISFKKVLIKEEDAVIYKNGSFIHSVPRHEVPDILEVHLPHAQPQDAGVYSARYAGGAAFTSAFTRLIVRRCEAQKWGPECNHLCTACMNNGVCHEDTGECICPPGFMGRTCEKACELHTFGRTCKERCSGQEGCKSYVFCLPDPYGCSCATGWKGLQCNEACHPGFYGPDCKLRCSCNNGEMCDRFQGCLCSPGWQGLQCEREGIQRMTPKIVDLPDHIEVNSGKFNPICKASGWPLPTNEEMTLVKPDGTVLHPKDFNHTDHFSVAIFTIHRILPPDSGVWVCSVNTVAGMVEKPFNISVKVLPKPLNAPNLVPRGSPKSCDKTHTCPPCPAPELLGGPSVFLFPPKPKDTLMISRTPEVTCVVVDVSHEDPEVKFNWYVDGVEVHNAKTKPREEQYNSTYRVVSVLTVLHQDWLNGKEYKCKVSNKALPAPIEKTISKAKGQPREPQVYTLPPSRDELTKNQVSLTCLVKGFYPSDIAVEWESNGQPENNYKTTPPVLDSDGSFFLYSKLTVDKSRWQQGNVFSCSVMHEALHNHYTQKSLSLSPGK
T15 sequence (Q02763 other isoform, or with tags, fused parts or gaps limits assumed, form in doubt): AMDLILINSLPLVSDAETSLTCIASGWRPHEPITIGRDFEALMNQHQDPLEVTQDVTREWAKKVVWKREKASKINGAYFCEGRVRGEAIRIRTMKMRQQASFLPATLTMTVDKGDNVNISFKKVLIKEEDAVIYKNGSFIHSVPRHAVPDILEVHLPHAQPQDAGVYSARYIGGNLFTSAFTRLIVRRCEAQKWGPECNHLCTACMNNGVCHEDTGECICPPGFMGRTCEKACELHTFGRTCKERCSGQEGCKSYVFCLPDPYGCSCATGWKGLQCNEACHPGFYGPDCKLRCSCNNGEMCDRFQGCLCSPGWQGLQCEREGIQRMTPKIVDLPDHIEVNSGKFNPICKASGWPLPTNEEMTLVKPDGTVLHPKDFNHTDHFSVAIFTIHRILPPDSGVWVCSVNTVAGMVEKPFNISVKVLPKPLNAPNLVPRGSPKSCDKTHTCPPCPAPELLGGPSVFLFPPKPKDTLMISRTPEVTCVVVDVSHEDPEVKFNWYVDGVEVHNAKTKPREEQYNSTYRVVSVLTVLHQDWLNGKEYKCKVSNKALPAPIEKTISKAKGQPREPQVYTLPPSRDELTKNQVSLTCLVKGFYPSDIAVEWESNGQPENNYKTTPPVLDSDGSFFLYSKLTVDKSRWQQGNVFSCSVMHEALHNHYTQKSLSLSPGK
T4 sequence (Q02763 other isoform, or with tags, fused parts or gaps limits assumed, form in doubt): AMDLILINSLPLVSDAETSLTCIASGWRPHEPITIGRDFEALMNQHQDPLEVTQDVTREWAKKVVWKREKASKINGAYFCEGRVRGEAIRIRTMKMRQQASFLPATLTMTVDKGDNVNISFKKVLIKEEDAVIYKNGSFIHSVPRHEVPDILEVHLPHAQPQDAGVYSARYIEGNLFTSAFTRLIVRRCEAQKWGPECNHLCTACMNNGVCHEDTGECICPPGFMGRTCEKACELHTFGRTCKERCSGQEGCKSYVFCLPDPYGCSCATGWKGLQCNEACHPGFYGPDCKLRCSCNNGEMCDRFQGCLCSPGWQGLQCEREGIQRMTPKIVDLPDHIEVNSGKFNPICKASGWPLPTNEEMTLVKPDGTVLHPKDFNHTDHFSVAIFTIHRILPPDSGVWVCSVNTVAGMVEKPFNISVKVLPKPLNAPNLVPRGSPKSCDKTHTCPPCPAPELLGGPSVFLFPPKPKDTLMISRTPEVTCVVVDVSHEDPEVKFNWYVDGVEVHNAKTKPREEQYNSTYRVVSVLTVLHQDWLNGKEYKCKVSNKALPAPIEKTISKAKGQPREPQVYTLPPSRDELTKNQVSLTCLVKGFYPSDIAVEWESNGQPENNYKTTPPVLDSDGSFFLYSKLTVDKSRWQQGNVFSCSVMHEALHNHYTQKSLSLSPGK
T5 sequence (Q02763 other isoform, or with tags, fused parts or gaps limits assumed, form in doubt): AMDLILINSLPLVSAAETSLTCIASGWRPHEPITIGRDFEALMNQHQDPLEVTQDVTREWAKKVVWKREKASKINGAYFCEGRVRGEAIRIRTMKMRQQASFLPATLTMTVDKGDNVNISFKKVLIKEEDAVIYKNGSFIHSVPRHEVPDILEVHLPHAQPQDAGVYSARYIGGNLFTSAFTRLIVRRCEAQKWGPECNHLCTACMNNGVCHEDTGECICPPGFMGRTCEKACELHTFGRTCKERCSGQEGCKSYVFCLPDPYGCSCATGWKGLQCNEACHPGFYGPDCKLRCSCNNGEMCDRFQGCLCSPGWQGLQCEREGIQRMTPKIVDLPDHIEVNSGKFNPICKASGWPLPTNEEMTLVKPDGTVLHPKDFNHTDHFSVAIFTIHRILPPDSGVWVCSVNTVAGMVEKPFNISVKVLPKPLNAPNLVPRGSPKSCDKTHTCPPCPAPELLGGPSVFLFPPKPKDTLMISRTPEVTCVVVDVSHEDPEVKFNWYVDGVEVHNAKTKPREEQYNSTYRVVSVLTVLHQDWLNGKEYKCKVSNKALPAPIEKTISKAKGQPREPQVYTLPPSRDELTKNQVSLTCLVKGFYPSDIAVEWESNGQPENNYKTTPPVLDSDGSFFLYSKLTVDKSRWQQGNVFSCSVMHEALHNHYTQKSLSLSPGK

B1: TIE-1-Igγ1-LALA (antibody, human IgG1, kappa, L234A L235A)
heavy: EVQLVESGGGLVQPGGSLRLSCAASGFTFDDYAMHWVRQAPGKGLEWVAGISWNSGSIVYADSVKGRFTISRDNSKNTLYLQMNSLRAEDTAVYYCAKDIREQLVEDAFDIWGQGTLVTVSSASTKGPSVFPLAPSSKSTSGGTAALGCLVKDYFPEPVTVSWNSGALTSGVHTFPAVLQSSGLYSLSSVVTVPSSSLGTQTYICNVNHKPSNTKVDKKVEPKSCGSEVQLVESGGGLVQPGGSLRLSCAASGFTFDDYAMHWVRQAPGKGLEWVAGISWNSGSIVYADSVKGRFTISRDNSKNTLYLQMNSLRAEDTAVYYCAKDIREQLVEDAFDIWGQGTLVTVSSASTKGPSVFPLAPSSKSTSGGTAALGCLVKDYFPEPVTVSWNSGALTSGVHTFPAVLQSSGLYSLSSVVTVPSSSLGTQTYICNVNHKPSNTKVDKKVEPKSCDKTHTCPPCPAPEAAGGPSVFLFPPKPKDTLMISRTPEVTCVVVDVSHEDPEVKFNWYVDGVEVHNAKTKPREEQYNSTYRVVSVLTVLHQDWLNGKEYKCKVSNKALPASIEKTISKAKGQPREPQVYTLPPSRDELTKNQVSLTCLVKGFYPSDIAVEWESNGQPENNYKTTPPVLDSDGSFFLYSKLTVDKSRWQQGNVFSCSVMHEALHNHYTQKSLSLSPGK
light: DIQMTQSPSSLSASVGDRVTITCRSSQSLLHSHRYNYLDWYQQKPGKAPKLLIYLGSNRASGVPSRFSGSGSGTDFTLTISSVQPEDFATYYCMQTLQTPLTFGQGTKVEIKRTVAAPSVFIFPPSDEQLKSGTASVVCLLNNFYPREAKVQWKVDNALQSGNSQESVTEQDSKDSTYSLSSTLTLSKADYEKHKVYACEVTHQGLSSPVTKSFNRGEC
notes: Tandem tetravalent format: two heavy chains (VH-CH1-linker-VH-CH1-CH2-CH3) and four light chains; also called tetravalent anti-human Tie2 antibody with L234A, L235A and P331S
EC50 (Human Tie2 (1-452)g3-Fc [1]): 1.1 ng/mL | EC50 (Human Tie2 (1-452)r7-Fc [2]): 1.1 ng/mL | Relative value (%) of luminescent intensity (Human Tie2 (1-452)m1-Fc): 104% | Relative value (%) of luminescent intensity (Human Tie2 (1-452)g4-Fc): 53% | Relative value (%) of luminescent intensity (Human Tie2 (1-452)y1-Fc): 109% | Relative value (%) of luminescent intensity (Human Tie2 (1-452)r3-Fc): 102% | Relative value (%) of luminescent intensity (Human Tie2 (1-452)g2-Fc): 72% | Relative value (%) of luminescent intensity (Human Tie2 (1-452)g6-Fc): 105% | Relative value (%) of luminescent intensity (Human Tie2 (1-452)m3-Fc): 103% | Relative value (%) of luminescent intensity (Human Tie2 (1-452)r6-Fc): 100% | Relative value (%) of luminescent intensity (Human Tie2 (1-452)g3-Fc [3]): 96% | Relative value (%) of luminescent intensity (Human Tie2 (1-452)r4-Fc): 101% | Relative value (%) of luminescent intensity (Human Tie2 (1-452)c1-Fc): 104% | Relative value (%) of luminescent intensity (Human Tie2 (1-452)g1-Fc): 3% | Relative value (%) of luminescent intensity (Human Tie2 (1-452)r2-Fc): 96% | Relative value (%) of luminescent intensity (Human Tie2 (1-452)r7-Fc [4]): 100% | Relative value (%) of luminescent intensity (Human Tie2 (1-452)r5-Fc): 102%
